Publication PMC11490872, “Drug-resistant menin variants retain high binding affinity and interactions with MLL1” (The Journal of Biological Chemistry, 2024)
Residue numbers refer to the chain shown, from its start. Like-named read-outs stand apart in the source and are kept apart here.

T1: menin^WT bound to FLSN-MLL1^4-43 (Homo sapiens, UniProt O00255)
T1 construct: Full-length human menin was expressed in BL21(DE3) cells; thioredoxin-His6 (cleaved yes); made in house; host or cells: E. coli BL21(DE3); probe peptide from GenScript
T1 sequence (O00255 1-610): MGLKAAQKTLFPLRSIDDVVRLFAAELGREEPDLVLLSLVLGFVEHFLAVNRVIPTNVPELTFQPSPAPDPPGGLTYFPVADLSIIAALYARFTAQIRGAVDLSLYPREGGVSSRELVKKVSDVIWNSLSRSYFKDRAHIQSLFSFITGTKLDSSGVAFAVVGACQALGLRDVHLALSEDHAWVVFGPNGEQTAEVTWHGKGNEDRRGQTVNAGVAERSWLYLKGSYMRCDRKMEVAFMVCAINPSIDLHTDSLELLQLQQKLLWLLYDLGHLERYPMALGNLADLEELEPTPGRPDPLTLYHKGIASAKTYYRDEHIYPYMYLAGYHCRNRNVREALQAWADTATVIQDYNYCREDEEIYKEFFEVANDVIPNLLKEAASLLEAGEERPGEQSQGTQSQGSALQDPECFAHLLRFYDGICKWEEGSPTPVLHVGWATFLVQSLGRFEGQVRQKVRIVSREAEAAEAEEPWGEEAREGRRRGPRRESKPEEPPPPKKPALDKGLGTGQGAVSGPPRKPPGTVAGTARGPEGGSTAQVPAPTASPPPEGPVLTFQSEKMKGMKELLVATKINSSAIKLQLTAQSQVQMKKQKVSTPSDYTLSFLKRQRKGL

T2: menin^M327I bound to FLSN-MLL1^4-43 (Homo sapiens, UniProt O00255, M322I)
T2 construct: The gene encoding full-length human menin was cloned into a pET32a expression vector; thioredoxin-His6 (cleaved yes); made in house; host or cells: E. coli BL21(DE3); probe peptide from GenScript
T2 sequence (O00255 1-610 M322I): T1 sequence (O00255 1-610) with M322I

T3: menin^G331R bound to FLSN-MLL1^4-43 (Homo sapiens, UniProt O00255, G326R)
T3 construct: The gene encoding full-length human menin was cloned into a pET32a expression vector; thioredoxin-His6 (cleaved yes); made in house; host or cells: E. coli BL21(DE3); probe peptide from GenScript
T3 sequence (O00255 1-610 G326R): T1 sequence (O00255 1-610) with G326R

B1: MLL1^160: N-terminal 160 amino acids of human MLL1, Cys2 mutated to alanine, recombinant (protein)
chain: MAHSARWRFPARPGTTGGGGGGGRRGLGGAPRQRVPALLLPPGPPVGGGGPGAPPSPPAVAAAAAAAGSSGAGVPGGAAAASAASSSSASSSSSSSSSASSGPALLRVGPGFDAALQVSAAIGTNLRRFRAVFGESGGGGGSGEDEQFLGFGSDEEVRVR
modifications: The printed 'Cys2' is the single N-terminal cysteine, Cys5 in the entry (peptide S4-A5-R6); Trx-His6 tag cleaved

Assays:
Format in all cases: binding
[1] = target: T1, menin^WT bound to FLSN-MLL1^4-43; test: FP competition, displacement of FLSN-MLL1^4-43 from menin^WT
Description: (§1) FP competition experiments used FLSN-MLL1^4-43 at 4 nM and menin at 4 nM against varying concentrations of unlabeled MLL1 peptides in FP buffer for IC50 determination. Protein-peptide complexes were incubated for 1 h before unlabeled peptide competitors were added to ensure complete binding. Unlabeled peptide competitors were incubated with the protein-peptide complexes for 3 h before measurement using the PHERAstar microplate reader ([25]). Experiments with Revumenib were run with the same steps and conditions but used 5% DMSO in the final solution. Kd and IC50 values were calculated using GraphPad Prism 10 by plotting mP values measured for each protein/MLL1 peptide or Revumenib as a function of protein/MLL1 peptide (or Revumenib) concentration ([25]). All FP binding and competition experiments were run in triplicate.

[2] = target: T2, menin^M327I bound to FLSN-MLL1^4-43; test: FP competition, displacement of FLSN-MLL1^4-43 from menin^M327I
Description: as §1

[3] = target: T3, menin^G331R bound to FLSN-MLL1^4-43; test: FP competition, displacement of FLSN-MLL1^4-43 from menin^G331R
Description: as §1

[4] = FP competition with MLL1 fragments, 3 h incubation, N = 3, Fig. 3B, read-out: WT IC50
[5] = FP competition with MLL1 fragments, 3 h incubation, N = 3, Fig. 3B, read-out: M327I IC50
[6] = FP competition with MLL1 fragments, 3 h incubation, N = 3, Fig. 3B, read-out: G331R IC50

Row | Molecule | IC50 [1, 4] [nM] | IC50 [2, 5] [nM] | IC50 [3, 6] [nM] | IC50 ([1]; FP competition, 5% DMSO, 3 h, N = 3, Fig. 4A, read-out: IC50 (nM), menin variant WT) [nM] | IC50 ([2]; FP competition, 5% DMSO, 3 h, N = 3, Fig. 4A, read-out: IC50 (nM), menin variant M327I) [nM] | IC50 ([3]; FP competition, 5% DMSO, 3 h, N = 3, Fig. 4A, read-out: IC50 (nM), menin variant G331R) [nM] | reduction of activity against G331R ([3]; versus wild-type IC50) [fold]
1 | MLL1^46: recombinant MLL1 fragment spanning amino acids 1–46, containing MBM1 and MBM2 (MAHSARWRFPARPGTTGGGGGGGRRGLGGAPRQRVPALLLPPGPPV; The printed 'Cys2' is Cys5 in the entry (peptide S4-A5-R6); Trx-His6 tag cl) | 1.6 ± 0.7 | 1.7 ± 0.7 | 3.1 ± 0.7 | – | – | – | –
2 | CCN(C(=O)c1cc(F)ccc1Oc1cncnc1N1CC2(CCN(C[C@H]3CC[C@H](NS(=O)(=O)CC)CC3)CC2)C1)C(C)C [Revumenib, reference compound] | – | – | – | 5.7 | 535 ± 37 | 30 ± 2.5 | 5
3 | B1 | 4.1 ± 1.3 | 5.1 ± 0.2 | 8 ± 0.5 | – | – | – | –
